Test results published in the supplement of paper PMC10567573.

B1: FCHO1 (parent)
chain: HLELTRKLQDLIKDVLRYGEEQLK

Variants of: B1
Assay: protein stability index of a GFP-peptide fusion (GPS, HEK-293T) (PSI 1-6); higher = more stable
Conditions: c terminus: a fixed tail appended
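Also: lentivirally expressed fusions sorted by FACS into six bins by GFP to DsRed ratio, PSI derived from sequencing read proportions per bin multiplied by bin number.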

Protein stability index, by site and new letter:
G19: K 1.59; L 2.03; N 2.18; W 3.49; S 1.52; H 2.29; C 1.4; T 3.25; R 2.53; I 2.01; M 1.97; P 1.78; Q 1.59; F 2.83; V 2.02; A 2.5; E 1.88; D 2.09; Y 1.75
Q22: C 1.59; H 2.41; A 1.68; G 2.62; I 2.21; F 2.07; E 2.37; D 2.43; L 2.14
T5: F 2.34; M 3.28; C 2.55; P 1.94; Y 3.13; H 3.29; G 2.48; I 2.38; E 1.88; K 5.01; V 2.63; Q 3.54; N 2.14; W 2.05; L 3.42; A 1.89; D 2.53; S 3.79
Y18: S 1.82; V 3.06; M 2.65; F 2.25; G 1.83; A 2.74; H 2.12; D 2.63; R 2.27; N 1.84; Q 3.96; T 1.88; K 3.41; L 2.53; E 1.77; P 2.42; C 1.61
K7: I 2.06; D 2.27; S 2.75; T 2.96; V 1.74; P 1.51; W 1.87; R 2.78; F 2.12; H 1.99; Y 1.78; A 2.33; L 3.41; C 1.55; E 2.28; N 2.03; Q 2.28; M 3.46; G 2.68
R17: S 1.46; C 1.83; A 1.97; F 3.06; P 2.95; E 1.76; H 3.28; V 2.61; L 2.88; G 1.58; T 1.54; D 1.73; N 2.64; I 1.54; M 1.98; Q 2.26; Y 2.08
Q9: P 2.81; D 1.24; A 2.81; I 1.22; G 1.31; K 3.73; F 2.25; L 2.26; W 2.68; M 3.55; H 1.65; Y 3.31; V 2.56
E3: A 2.96; I 2.88; N 3.5; R 2.74; C 2.31; D 2.84; L 2.7; Q 3.73; V 2.56; M 3.36; P 2.72; T 3.33; K 2.17; Y 2.52; F 2.54; W 2.83; H 3.08; S 3.71
D10: V 4.56; N 2.62; K 2.72; I 3.93; C 3.93; L 1.44; W 2.82; G 3.66; P 1.99; A 3.54; Y 4.45; R 2.58; E 3.03
D14: Q 4.72; P 2.97; A 2.45; K 4.59; Y 2.66; F 1.77; S 3.79; N 2.76; C 3.08; I 2.7; V 3.29; G 1.68; H 3.31; E 2.9; R 3.44; L 1.99; M 1.3
K13: H 1.8; C 2.28; N 1.9; V 2.29; I 4.84; Y 1.33; S 2; L 4.09; G 1.78; T 1.67; A 2.14; E 2.37; W 2.16; F 1.59; P 2.63; R 2.3; M 2.22; Q 1.59; D 2.06
L4: W 3.23; T 1.55; I 2.12; P 1.58; D 2.01; S 2.76; N 1.75; E 1.46; Q 2.58; G 2.02; C 4.01; H 3.01; V 3.17; F 3.76; Y 2.41; K 1.43; M 2.21
V15: A 2.98; Q 2.49; I 2.96; F 2.12; K 1.87; E 3.18; S 1.88; N 2.98; W 3.69; M 3.23; R 2.74; P 2.27; G 2.15; H 1.83; D 4.22
L2: R 2.11; M 5.22; Y 2.04; V 3.29; W 1.41; T 2.88; Q 2.94; N 2.76
E21: Y 3.04; D 1.81; W 1.81; M 3.24; H 2.76; N 3.29; R 2.43; I 3.67; T 2.8
R6: P 1.79; Y 1.9; S 2.4; M 1.46; T 1.92; H 3.21; K 2.69; C 2.25; D 1.84; A 1.45; F 1.9; Q 1.86; W 2.34; V 1.69; E 1.85; G 2.11; L 1.29; I 1.95; N 1.61
L8: F 2.29; N 3.85; M 1.45; P 2.71; R 3.39; H 2.71; I 4.57; V 1.97; G 2.46; K 2.74; Y 1.64; C 3.07; D 4.04; A 1.94; Q 3.3; T 2.39; E 3.62; W 1.36; S 3.28
L16: W 3.05; H 2.73; R 1.69; Q 2.54; N 2.82; Y 1.93; A 1.04; M 2.69; E 3.18; T 2.25; D 3.32; K 1.44; C 2.91; P 2.9; G 2.61; V 4.13; S 2.09; I 2.39; F 2.77
E20: D 3.65; P 2.51; I 3.44; Y 2.65; V 3.74; K 1.7; G 2.66; S 3.54; A 2.69; M 2.81; W 3.32; H 2.58; C 2.57; T 1.74
L11: Y 1.09; S 2.67; P 4.34; F 3.54; R 1.2; M 3.68; D 4.29; I 3.17; A 2.5; E 4.22; T 1.63; H 2.51; C 1.67; G 2.38; K 2.38; Q 2.47; N 2.56
I12: P 3.65; S 2.51; G 2.88; R 3.39; N 4.18; F 2.57; T 2.31; D 4.11; L 1.77; C 1.73; K 3.17; W 1.89; M 2.25; A 2.27; H 3.05; E 3.82; Q 3.4; Y 2.34
